Source: the Immune Epitope Database (IEDB)

Tests used:
[1] = molecular target: HLA-A*03:01; experiment: IEDB peptide-MHC binding, purified MHC/direct/fluorescence; filed as Kd, often an IC50 or EC50 that approximates it; ≥ and ≤ were set here for values at or beyond the usual limits of such assays
[2] = molecular target: HLA-B*07:02; experiment: as above
[3] = molecular target: HLA-B*58:01; experiment: as above
[4] = molecular target: HLA-B*40:01; experiment: as above
[5] = molecular target: HLA-A*31:01; experiment: as above
[6] = molecular target: HLA-A*11:01; experiment: as above
[7] = molecular target: HLA-B*15:01; experiment: as above
[8] = molecular target: HLA-A*24:02; experiment: as above
[9] = molecular target: HLA-A*02:19; experiment: as above
[10] = molecular target: HLA-B*46:01; experiment: as above; settings: source organism: Brucella melitensis
[11] = molecular target: HLA-A*01:01; experiment: as above
[12] = molecular target: HLA-A*02:12; experiment: as above
[13] = molecular target: HLA-A*02:03; experiment: as above
[14] = molecular target: HLA-B*27:05; experiment: as above
[15] = molecular target: HLA-A*02:06; experiment: as above
[16] = molecular target: HLA-A*02:01; experiment: as above
[17] = molecular target: HLA-B*44:02; experiment: as above
[18] = molecular target: HLA-A*69:01; experiment: as above
[19] = molecular target: HLA-A*26:01; experiment: as above; settings: source organism: Rickettsia sibirica 246
[20] = molecular target: HLA-B*08:01; experiment: as above
[21] = molecular target: HLA-B*08:02; experiment: as above; settings: source organism: Rickettsia sibirica 246
[22] = molecular target: HLA-A*30:01; experiment: IEDB peptide-MHC binding, purified MHC/competitive/fluorescence; filed as Kd, often an IC50 or EC50 that approximates it; ≥ and ≤ were set here for values at or beyond the usual limits of such assays
[23] = molecular target: HLA-A*01:01; experiment: as above; settings: source organism: Homo sapiens
[24] = molecular target: HLA-A*80:01; experiment: IEDB peptide-MHC binding, purified MHC/direct/fluorescence; filed as Kd, often an IC50 or EC50 that approximates it; ≥ and ≤ were set here for values at or beyond the usual limits of such assays
[25] = molecular target: HLA-A*24:03; experiment: as above; settings: source organism: Amur virus
[26] = molecular target: HLA-A*23:01; experiment: as above; settings: source organism: Amur virus
[27] = molecular target: HLA-A*30:01; experiment: IEDB peptide-MHC binding, purified MHC/competitive/radioactivity; filed as Kd, often an IC50 or EC50 that approximates it; ≥ and ≤ were set here for values at or beyond the usual limits of such assays; settings: source organism: Mammarenavirus lassaense
[28] = molecular target: HLA-A*26:01; experiment: as above; settings: source organism: Mammarenavirus lassaense
[29] = molecular target: HLA-A*32:01; experiment: as above
[30] = molecular target: HLA-A*29:02; experiment: as above; settings: source organism: Mammarenavirus lassaense
[31] = molecular target: HLA-A*30:02; experiment: as above; settings: source organism: Mammarenavirus lassaense
[32] = molecular target: HLA-B*83:01; experiment: IEDB peptide-MHC binding, purified MHC/competitive/fluorescence; filed as Kd, often an IC50 or EC50 that approximates it; ≥ and ≤ were set here for values at or beyond the usual limits of such assays
[33] = molecular target: HLA-B*45:06; experiment: as above
[34] = molecular target: HLA-B*15:42; experiment: as above
[35] = molecular target: HLA-A*24:03; experiment: as above; settings: source organism: Encephalitozoon cuniculi GB-M1
[36] = molecular target: HLA-A*29:02; experiment: IEDB peptide-MHC binding, purified MHC/direct/fluorescence; filed as Kd, often an IC50 or EC50 that approximates it; ≥ and ≤ were set here for values at or beyond the usual limits of such assays; settings: source organism: Mammarenavirus machupoense
[37] = molecular target: HLA-A*02:11; experiment: as above; settings: source organism: Salmonella enterica subsp. arizonae serovar 62:z4,z23:-
[38] = molecular target: HLA-C*06:02; experiment: as above; settings: source organism: Yersinia pestis Nepal516
[39] = molecular target: HLA-A*68:23; experiment: IEDB peptide-MHC binding, purified MHC/competitive/fluorescence; filed as Kd, often an IC50 or EC50 that approximates it; ≥ and ≤ were set here for values at or beyond the usual limits of such assays; settings: source organism: dengue virus type 4
[40] = molecular target: HLA-A*32:15; experiment: as above; settings: source organism: dengue virus type 4
[41] = molecular target: HLA-A*32:07; experiment: as above; settings: source organism: dengue virus type 4
[42] = molecular target: HLA-C*14:02; experiment: as above; settings: source organism: dengue virus type 4
[43] = molecular target: HLA-B*57:01; experiment: IEDB peptide-MHC binding, purified MHC/direct/fluorescence; filed as Kd, often an IC50 or EC50 that approximates it; ≥ and ≤ were set here for values at or beyond the usual limits of such assays; settings: source organism: dengue virus type 4
[44] = molecular target: HLA-B*15:17; experiment: as above; settings: source organism: dengue virus type 4
[45] = source organism: Brucella melitensis
[46] = source organism: Brucella ovis ATCC 25840
[47] = source organism: Rickettsia conorii
[48] = source organism: Mammarenavirus lassaense
[49] = source organism: Yersinia enterocolitica
[50] = source organism: Salmonella enterica subsp. arizonae serovar 62:z4,z23:-
[51] = source organism: dengue virus type 4

Q: How did the Kd [1, 45] turn out when CTDPPLLSV was run?
A: The Kd was no less than 20000 nM.

Q: And the Kd [2, 45]?
A: The Kd was no less than 20000 nM.

Q: And the Kd [3, 45]?
A: Its Kd is no less than 20000 nM.

Q: What about the Kd [4, 45] of the same sequence?
A: Its Kd is no less than 20000 nM.

Q: And the Kd [5, 45]?
A: Its Kd is no less than 20000 nM.

Q: And the Kd [6, 45]?
A: The Kd was no less than 20000 nM.

Q: What about the Kd [7, 45] of the same sequence?
A: Its Kd is no less than 20000 nM.

Q: And the Kd [8, 45]?
A: The Kd was no less than 20000 nM.

Q: And the Kd [9, 46]?
A: The Kd was no less than 20000 nM.

Q: What about the Kd [10] of the same sequence?
A: The Kd was no less than 20000 nM.

Q: What about the Kd [11, 45] of the same sequence?
A: Its Kd is 6980 nM.

Q: What about the Kd [12, 46] of the same sequence?
A: Its Kd is 529 nM.

Q: And the Kd [13, 46]?
A: Its Kd is 1050 nM.

Q: What about the Kd [14, 45] of the same sequence?
A: The Kd was no less than 20000 nM.

Q: What about the Kd [15, 46] of the same sequence?
A: Its Kd is 23 nM.

Q: And the Kd [16, 45]?
A: Its Kd is 526 nM.

Q: What about the Kd [17, 45] of the same sequence?
A: Its Kd is no less than 20000 nM.

Q: SSSGMDAYY was tested. Which Kd [1, 47] did it give?
A: The Kd was no less than 20000 nM.

Q: What about the Kd [2, 47] of the same sequence?
A: Its Kd is no less than 20000 nM.

Q: And the Kd [18, 47]?
A: The Kd was no less than 20000 nM.

Q: And the Kd [3, 47]?
A: The Kd was 216 nM.

Q: What about the Kd [4, 47] of the same sequence?
A: Its Kd is no less than 20000 nM.

Q: And the Kd [19]?
A: The Kd was 124 nM.

Q: And the Kd [5, 47]?
A: The Kd was no less than 20000 nM.

Q: What about the Kd [7, 47] of the same sequence?
A: Its Kd is 159 nM.

Q: And the Kd [8, 47]?
A: Its Kd is no less than 20000 nM.

Q: And the Kd ([20]; source organism: Rickettsia sibirica 246)?
A: The Kd was no less than 20000 nM.

Q: What about the Kd [21] of the same sequence?
A: Its Kd is no less than 20000 nM.

Q: And the Kd [11, 47]?
A: Its Kd is 69.2 nM.

Q: What about the Kd [14, 47] of the same sequence?
A: The Kd was no less than 20000 nM.

Q: And the Kd [16, 47]?
A: The Kd was no less than 20000 nM.

Q: And the Kd [17, 47]?
A: Its Kd is no less than 20000 nM.

Q: Which Kd ([22]; source organism: Homo sapiens) does the source give for CSDSDGLAP here?
A: Its Kd is no less than 20000 nM.

Q: And the Kd [23]?
A: Its Kd is no less than 20000 nM.

Q: And the Kd ([24]; source organism: Homo sapiens)?
A: The Kd was no less than 20000 nM.

Q: What does the source list for ESPSSIWVF?
A: Kd ([22]; source organism: Hantaan virus 76-118): 2330 nM; Kd [25]: 1220 nM; Kd [26]: 145 nM; Kd ([8]; source organism: Amur virus): 5.8 nM

Q: How did the Kd [27] turn out when LIDGRTSFY was run?
A: Its Kd is no less than 51300 nM.

Q: And the Kd [28]?
A: The Kd was 14400 nM.

Q: And the Kd [29, 48]?
A: Its Kd is no less than 77800 nM.

Q: What about the Kd [30] of the same sequence?
A: Its Kd is 1150 nM.

Q: And the Kd [31]?
A: Its Kd is 1210 nM.

Q: And the Kd [32, 48]?
A: The Kd was no less than 5000 nM.

Q: What about the Kd [33, 48] of the same sequence?
A: Its Kd is no less than 5000 nM.

Q: And the Kd [34, 48]?
A: Its Kd is no less than 5000 nM.

Q: What about the Kd [11, 48] of the same sequence?
A: The Kd was 0.9 nM.

Q: What about the Kd [24, 48] of the same sequence?
A: The Kd was 14.8 nM.

Q: Which results are given for RVLENTHIF?
A: Kd [35]: 2.9 nM; Kd ([22]; source organism: Encephalitozoon cuniculi GB-M1): 222 nM

Q: Which results are given for ISEMLSKEY?
A: Kd ([11]; source organism: Mammarenavirus cupixiense): 545 nM; Kd ([24]; source organism: Mammarenavirus machupoense): 8000 nM; Kd [36]: 179 nM

Q: RIYSHIAPY was tested. Which Kd [1, 49] did it give?
A: The Kd was 31.2 nM.

Q: What about the Kd [2, 49] of the same sequence?
A: The Kd was no less than 20000 nM.

Q: And the Kd [18, 49]?
A: Its Kd is no less than 20000 nM.

Q: What about the Kd [3, 49] of the same sequence?
A: Its Kd is 58 nM.

Q: What about the Kd [4, 49] of the same sequence?
A: The Kd was no less than 20000 nM.

Q: And the Kd [5, 49]?
A: The Kd was 46.7 nM.

Q: What about the Kd [6, 49] of the same sequence?
A: The Kd was 36.8 nM.

Q: What about the Kd [37] of the same sequence?
A: Its Kd is 126 nM.

Q: What about the Kd [7, 49] of the same sequence?
A: The Kd was 109 nM.

Q: And the Kd [20, 50]?
A: Its Kd is no less than 20000 nM.

Q: What about the Kd [38] of the same sequence?
A: Its Kd is no less than 20000 nM.

Q: And the Kd [9, 50]?
A: Its Kd is no less than 20000 nM.

Q: What about the Kd [11, 49] of the same sequence?
A: The Kd was no less than 20000 nM.

Q: What about the Kd [12, 50] of the same sequence?
A: Its Kd is 475 nM.

Q: What about the Kd [13, 50] of the same sequence?
A: Its Kd is 562 nM.

Q: What about the Kd [14, 49] of the same sequence?
A: The Kd was 723 nM.

Q: And the Kd [15, 50]?
A: The Kd was 221 nM.

Q: What about the Kd [16, 49] of the same sequence?
A: Its Kd is 1970 nM.

Q: What about the Kd [17, 49] of the same sequence?
A: The Kd was no less than 20000 nM.

Q: What does the source list for STMPLVMAW?
A: Kd ([29]; source organism: Dengue virus 4 Philippines/H241/1956): 1.69 nM; Kd [39]: 0.6 nM; Kd [40]: 22.7 nM; Kd [32, 51]: 1140 nM; Kd [41]: ≤ 1 nM; Kd [33, 51]: ≥ 5000 nM; Kd [34, 51]: ≥ 5000 nM; Kd [42]: 10.6 nM; Kd [43]: 5.2 nM; Kd [44]: ≤ 1 nM
